Experimental data published in patent publication US20240376221A1.
pKd: −log10 of the molar value.

Key:
[1] = molecular target: recombinant human OX40 (Acro Biosystems, cat. no. OXO-H5224) (human) (UniProt P43489); experiment: BLI cross-block; competitor (immobilized 1st Ab): IgG1-CD134-003-HC6LC2-RR
[2] = molecular target: recombinant human OX40 (Acro Biosystems, cat. no. OXO-H5224) (human) (UniProt P43489); experiment: BLI cross-block; competitor (immobilized 1st Ab): IgG1-CD134-IBI101
[3] = molecular target: recombinant human OX40 (Acro Biosystems, cat. no. OXO-H5224) (human) (UniProt P43489); experiment: BLI cross-block; competitor (immobilized 1st Ab): IgG1-CD134-h3C8
[4] = molecular target: human OX40 with mouse CRD3 (human with mouse CRD3) (UniProt P43489); experiment: flow cytometry, ExpiCHO-S cells with human OX40 carrying mouse CRD3
Sequence of human OX40 with mouse CRD3 (human with mouse CRD3) (P43489 other isoform, or with tags, fused parts or gaps limits assumed): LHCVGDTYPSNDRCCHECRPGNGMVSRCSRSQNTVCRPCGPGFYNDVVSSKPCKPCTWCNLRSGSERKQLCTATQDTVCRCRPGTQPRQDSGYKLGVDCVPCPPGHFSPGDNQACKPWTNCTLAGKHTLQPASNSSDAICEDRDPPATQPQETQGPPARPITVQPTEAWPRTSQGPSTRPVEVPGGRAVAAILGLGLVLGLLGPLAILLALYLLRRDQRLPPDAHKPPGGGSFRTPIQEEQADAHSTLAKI

[5] = molecular target: recombinant human OX40 (Acro Biosystems, cat. no. OXO-H5224) (human) (UniProt P43489); experiment: BLI cross-block; competitor (immobilized 1st Ab): IgG1-CD134-SF2
[6] = molecular target: recombinant human OX40 (Acro Biosystems, cat. no. OXO-H5224) (human) (UniProt P43489); experiment: BLI cross-block; competitor (immobilized 1st Ab): IgG1-CD134-007
[7] = molecular target: human OX40, cell surface-expressed (human) (UniProt P43489); experiment: flow cytometry, activated CD8+ T cells, donor 1
Sequence of human OX40, cell surface-expressed (human) (P43489 29-277): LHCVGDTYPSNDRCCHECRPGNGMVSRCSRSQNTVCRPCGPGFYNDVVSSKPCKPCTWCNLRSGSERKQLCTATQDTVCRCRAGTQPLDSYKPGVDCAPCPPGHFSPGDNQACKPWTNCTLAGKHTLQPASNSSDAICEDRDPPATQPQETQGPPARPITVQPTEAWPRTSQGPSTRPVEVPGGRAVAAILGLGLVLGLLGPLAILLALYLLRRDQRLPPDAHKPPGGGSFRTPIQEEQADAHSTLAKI

[8] = molecular target: recombinant human OX40 (Acro Biosystems, cat. no. OXO-H5224) (human) (UniProt P43489); experiment: BLI cross-block; competitor (immobilized 1st Ab): IgG1-CD134-RG7888
[9] = molecular target: cynomolgus monkey OX40, cell surface-expressed (cynomolgus monkey); experiment: flow cytometry, HEK293F cells with cynomolgus monkey OX40
Sequence of cynomolgus monkey OX40, cell surface-expressed (cynomolgus monkey) (P43489 other isoform, or with tags, fused parts or gaps limits assumed): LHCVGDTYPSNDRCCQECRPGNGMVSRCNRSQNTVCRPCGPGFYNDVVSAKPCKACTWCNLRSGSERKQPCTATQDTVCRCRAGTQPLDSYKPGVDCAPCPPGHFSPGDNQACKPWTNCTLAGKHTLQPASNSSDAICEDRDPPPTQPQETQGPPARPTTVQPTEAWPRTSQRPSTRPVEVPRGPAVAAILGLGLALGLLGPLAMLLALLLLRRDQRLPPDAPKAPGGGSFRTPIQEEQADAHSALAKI

[10] = molecular target: human OX40, cell surface-expressed (human) (UniProt P43489); experiment: flow cytometry, activated CD8+ T cells, donor 3
[11] = molecular target: recombinant human OX40 (Acro Biosystems, cat. no. OXO-H5224) (human) (UniProt P43489); experiment: BLI cross-block; competitor (immobilized 1st Ab): IgG1-CD134-003
[12] = molecular target: recombinant human OX40 (Acro Biosystems, cat. no. OXO-H5224) (human) (UniProt P43489); experiment: BLI cross-block; competitor (immobilized 1st Ab): IgG1-CD134-ABBV368
[13] = molecular target: human OX40, cell surface-expressed (human) (UniProt P43489); experiment: flow cytometry, activated CD4+ T cells, donor 2
[14] = molecular target: human OX40, cell surface-expressed (human) (UniProt P43489); experiment: flow cytometry, activated CD8+ T cells, mean of 3 donors
[15] = molecular target: recombinant human OX40 (Acro Biosystems, cat. no. OXO-H5224) (human) (UniProt P43489); experiment: BLI, Ab on AHC sensor, OX40 analyte
[16] = molecular target: recombinant human OX40 (Acro Biosystems, cat. no. OXO-H5224) (human) (UniProt P43489); experiment: BLI cross-block; competitor (immobilized 1st Ab): IgG1-CD134-Hu106
[17] = molecular target: recombinant cynomolgus monkey OX40 (Acro Biosystems, cat. no. OXO-C5220) (cynomolgus monkey); experiment: BLI, Ab on AHC sensor, OX40 analyte; * binding observed, less reliable fit
Sequence of recombinant cynomolgus monkey OX40 (Acro Biosystems, cat. no. OXO-C5220) (cynomolgus monkey) (P43489 other isoform, or with tags, fused parts or gaps limits assumed): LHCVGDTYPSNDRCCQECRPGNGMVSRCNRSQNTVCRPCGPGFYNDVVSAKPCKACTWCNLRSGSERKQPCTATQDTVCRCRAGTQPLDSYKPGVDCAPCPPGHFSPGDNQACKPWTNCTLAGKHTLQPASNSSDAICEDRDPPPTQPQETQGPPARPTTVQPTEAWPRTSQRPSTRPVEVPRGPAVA

[18] = molecular target: recombinant human OX40 (Acro Biosystems, cat. no. OXO-H5224) (human) (UniProt P43489); experiment: BLI cross-block; competitor (immobilized 1st Ab): IgG1-CD134-INCAGN1949
[19] = molecular target: human OX40 with mouse CRD1 (human with mouse CRD1) (UniProt P43489); experiment: flow cytometry, ExpiCHO-S cells with human OX40 carrying mouse CRD1
Sequence of human OX40 with mouse CRD1 (human with mouse CRD1) (P43489 other isoform, or with tags, fused parts or gaps limits assumed): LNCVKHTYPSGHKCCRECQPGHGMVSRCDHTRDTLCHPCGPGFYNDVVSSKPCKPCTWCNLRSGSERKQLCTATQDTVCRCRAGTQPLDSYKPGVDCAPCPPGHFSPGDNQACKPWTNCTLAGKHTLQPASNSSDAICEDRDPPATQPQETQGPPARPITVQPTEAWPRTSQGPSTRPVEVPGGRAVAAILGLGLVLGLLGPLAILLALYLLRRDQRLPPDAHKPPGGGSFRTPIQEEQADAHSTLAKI

[20] = molecular target: human OX40, cell surface-expressed (human) (UniProt P43489); experiment: flow cytometry, HEK293F cells with human OX40
[21] = molecular target: recombinant human OX40 (Acro Biosystems, cat. no. OXO-H5224) (human) (UniProt P43489); experiment: BLI cross-block; competitor (immobilized 1st Ab): IgG1-CD134-GBR830
[22] = molecular target: human OX40, cell surface-expressed (human) (UniProt P43489); experiment: flow cytometry, activated CD8+ T cells, donor 2
[23] = molecular target: recombinant human OX40 (Acro Biosystems, cat. no. OXO-H5224) (human) (UniProt P43489); experiment: BLI cross-block; competitor (immobilized 1st Ab): IgG1-CD134-012
[24] = molecular target: recombinant human OX40 (Acro Biosystems, cat. no. OXO-H5224) (human) (UniProt P43489); experiment: BLI cross-block; competitor (immobilized 1st Ab): IgG1-CD134-MEDI0562
[25] = molecular target: recombinant human OX40 (Acro Biosystems, cat. no. OXO-H5224) (human) (UniProt P43489); experiment: BLI cross-block; competitor (immobilized 1st Ab): IgG1-CD134-11D4
[26] = molecular target: human OX40, cell surface-expressed (human) (UniProt P43489); experiment: flow cytometry, activated CD4+ T cells, donor 1
[27] = molecular target: recombinant human OX40 (Acro Biosystems, cat. no. OXO-H5224) (human) (UniProt P43489); experiment: BLI cross-block; competitor (immobilized 1st Ab): IgG1-CD134-49B4-RRE
[28] = molecular target: human OX40, cell surface-expressed (human) (UniProt P43489); experiment: flow cytometry, activated CD4+ T cells, donor 3
[29] = molecular target: human OX40, cell surface-expressed (human) (UniProt P43489); experiment: flow cytometry, activated CD4+ T cells, mean of 3 donors
[30] = molecular target: recombinant human OX40 (Acro Biosystems, cat. no. OXO-H5224) (human) (UniProt P43489); experiment: BLI cross-block; competitor (immobilized 1st Ab): IgG1-CD134-A4453
[31] = molecular target: human OX40 with mouse CRD4 (human with mouse CRD4) (UniProt P43489); experiment: flow cytometry, ExpiCHO-S cells with human OX40 carrying mouse CRD4
Sequence of human OX40 with mouse CRD4 (human with mouse CRD4) (P43489 other isoform, or with tags, fused parts or gaps limits assumed): as the sequence (P43489 29-277) above, with D109N, A122S, H125Q, L127R, Q128H, N132D, S134L, I137V counted along it

[32] = molecular target: human OX40, cell surface-expressed (human) (UniProt P43489); experiment: flow cytometry, ExpiCHO-S cells with human OX40
[33] = molecular target: His-tagged human recombinant FcγRIa (human) (UniProt P12314); experiment: SPR, His-tagged FcγRIa captured on an anti-His chip, antibody injected
Sequence of His-tagged human recombinant FcγRIa (human) (P12314 16-288 limits assumed): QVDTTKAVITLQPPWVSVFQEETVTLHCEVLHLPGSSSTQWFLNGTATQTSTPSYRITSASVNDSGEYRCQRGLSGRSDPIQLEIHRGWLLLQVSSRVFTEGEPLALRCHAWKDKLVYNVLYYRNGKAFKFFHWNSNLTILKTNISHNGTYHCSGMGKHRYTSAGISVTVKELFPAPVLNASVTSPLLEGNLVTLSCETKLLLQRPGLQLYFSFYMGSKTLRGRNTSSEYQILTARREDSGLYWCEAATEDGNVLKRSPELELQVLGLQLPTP

[34] = molecular target: human FcγRIa, cell surface-expressed (human) (UniProt P12314); experiment: flow cytometry, ExpiCHO-S cells transfected with human FcγRIa
Sequence of human FcγRIa, cell surface-expressed (human) (P12314 16-374): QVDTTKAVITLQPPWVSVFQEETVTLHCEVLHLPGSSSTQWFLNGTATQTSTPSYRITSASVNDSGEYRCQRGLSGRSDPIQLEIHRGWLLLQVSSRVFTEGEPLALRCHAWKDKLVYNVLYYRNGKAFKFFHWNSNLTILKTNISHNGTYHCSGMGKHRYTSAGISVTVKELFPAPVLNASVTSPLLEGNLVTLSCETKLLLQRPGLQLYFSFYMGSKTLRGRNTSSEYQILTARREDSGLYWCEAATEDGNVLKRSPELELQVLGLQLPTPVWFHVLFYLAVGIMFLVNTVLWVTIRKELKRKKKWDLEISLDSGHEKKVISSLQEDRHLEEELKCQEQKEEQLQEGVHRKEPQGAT

Sequence of IgG1-CD134-IBI101 (antibody) (VH): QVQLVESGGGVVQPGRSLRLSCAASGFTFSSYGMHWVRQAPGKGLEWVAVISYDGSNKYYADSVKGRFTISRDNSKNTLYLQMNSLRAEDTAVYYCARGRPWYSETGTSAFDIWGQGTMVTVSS
Sequence of IgG1-CD134-IBI101 (antibody) (VL): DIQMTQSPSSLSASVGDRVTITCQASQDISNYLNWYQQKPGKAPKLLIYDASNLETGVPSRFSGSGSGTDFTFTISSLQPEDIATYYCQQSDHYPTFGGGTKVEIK
Sequence of recombinant human OX40 (Acro Biosystems, cat. no. OXO-H5224) (human) (P43489 29-216 limits assumed): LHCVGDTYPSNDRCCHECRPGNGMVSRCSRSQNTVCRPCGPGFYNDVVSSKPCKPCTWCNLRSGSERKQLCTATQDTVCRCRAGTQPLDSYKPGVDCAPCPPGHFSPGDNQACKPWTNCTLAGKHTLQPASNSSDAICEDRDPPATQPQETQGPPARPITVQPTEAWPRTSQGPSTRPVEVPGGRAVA

Substance | corrected association response [1] | corrected association response [2] | corrected association response [3] | corrected association response [5] | corrected association response [6] | corrected association response [8] | EC50 (read off the curve) [9] | corrected association response [11] | corrected association response [12] | pKd [15] | corrected association response [16] | pKd [17] | corrected association response [18] | EC50 (read off the curve) [19] | EC50 (read off the curve) [20] | corrected association response [21] | corrected association response [23] | corrected association response [24] | corrected association response [25] | corrected association response [27] | also measured
IgG1-CD134-IBI101 (antibody) | 1.23 nm | 0.01 nm | -0.03 nm | 0.07 nm | 0.02 nm | 0.31 nm | 0.08 µg/mL | 0.74 nm | -0.02 nm | 7.28 | -0.02 nm | 6.40 | 0.02 nm | 0.08 µg/mL | 0.09 µg/mL | 0.01 nm | 0.82 nm | 0.26 nm | 0.15 nm | 0 nm | EC50 (read off the curve) [4]: 0.06 µg/mL; EC50 [7]: 0.128 µg/mL; EC50 [10]: 0.192 µg/mL; EC50 [13]: 0.1 µg/mL; EC50 [14]: 0.727 µg/mL; EC50 [22]: 1.86 µg/mL; EC50 [26]: 0.101 µg/mL; EC50 [28]: 0.111 µg/mL; EC50 [29]: 0.104 µg/mL; corrected association response [30]: 0.24 nm
IgG1-CD134-Hu106 (antibody) | 1.39 nm | 0.01 nm | 0.01 nm | 0.03 nm | 0.05 nm | 0.02 nm | 0.06 µg/mL | 1.06 nm | -0.01 nm | 8.03 | 0.05 nm | 6.62 | 0 nm | 0.06 µg/mL | 0.08 µg/mL | 0.01 nm | 0.8 nm | 0.31 nm | 0.13 nm | -0.01 nm | EC50 (read off the curve) [31]: 0.06 µg/mL; EC50 (read off the curve) [4]: 0.06 µg/mL; koff [15]: 0.0024 s⁻¹; kon [15]: 260000 M⁻¹ s⁻¹; koff [17]: 0.029 s⁻¹; kon [17]: 120000 M⁻¹ s⁻¹; EC50 (read off the curve) [32]: 0.05 µg/mL; corrected association response [30]: 0.29 nm
IgG1-CD134-RG7888-K322A-E345R (antibody) |  |  |  |  |  |  |  |  |  |  |  |  |  |  |  |  |  |  |  |  | EC50 (read off the curve) [33]: 30 nM; EC50 (read off the curve) [34]: 0.6 µg/mL
IgG1-CD134-INCAGN1949 (antibody) | 1.74 nm | 0.01 nm | -0.02 nm | 0.02 nm | 0.55 nm | 0.01 nm | 0.1 µg/mL | 1.39 nm | -0.03 nm | 6.80 | -0.01 nm | 6.64 | 0 nm | 0.08 µg/mL | 0.06 µg/mL | 0.01 nm | 0.73 nm | 0.01 nm | 0.11 nm | 0 nm | EC50 (read off the curve) [31]: 0.08 µg/mL; EC50 (read off the curve) [32]: 0.07 µg/mL; corrected association response [30]: 0.25 nm
